B1: 26S proteasome regulatory subunit 8 homolog (Saccharomyces cerevisiae), Q01939 (parent)
chain: MTAAVTSSNIVLETHESGIKPYFEQKIQETELKIRSKTENVRRLEAQRNALNDKVRFIKDELRLLQEPGSYVGEVIKIVSDKKVLVKVQPEGKYIVDVAKDINVKDLKASQRVCLRSDSYMLHKVLENKADPLVSLMMVEKVPDSTYDMVGGLTKQIKEIKEVIELPVKHPELFESLGIAQPKGVILYGPPGTGKTLLARAVAHHTDCKFIRVSGAELVQKYIGEGSRMVRELFVMAREHAPSIIFMDEIDSIGSTRVEGSGGGDSEVQRTMLELLNQLDGFETSKNIKIIMATNRLDILDPALLRPGRIDRKIEFPPPSVAARAEILRIHSRKMNLTRGINLRKVAEKMNGCSGADVKGVCTEAGMYALRERRIHVTQEDFELAVGKVMNKNQETAISVAKLFK
partner: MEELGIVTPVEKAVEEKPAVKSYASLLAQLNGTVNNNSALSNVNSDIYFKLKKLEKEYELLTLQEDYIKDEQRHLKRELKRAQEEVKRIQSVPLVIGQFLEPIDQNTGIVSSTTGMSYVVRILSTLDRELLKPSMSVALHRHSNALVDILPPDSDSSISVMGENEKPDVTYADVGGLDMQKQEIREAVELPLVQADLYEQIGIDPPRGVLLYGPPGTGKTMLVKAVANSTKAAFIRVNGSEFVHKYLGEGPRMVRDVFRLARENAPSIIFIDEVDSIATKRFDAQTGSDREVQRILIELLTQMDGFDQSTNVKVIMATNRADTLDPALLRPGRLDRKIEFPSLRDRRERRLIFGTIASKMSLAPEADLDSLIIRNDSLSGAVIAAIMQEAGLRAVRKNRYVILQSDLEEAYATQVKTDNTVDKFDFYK

Variants of: B1
Details: with prs6b_yeast RPT3, P33298

| effect of a mutation on the interaction | Variant |
| --- | --- |
| decreasing interaction | K195R |
| decreasing interaction | K195S |

Reference: IntAct's records for PubMed 11742986
